Results from the supplement of paper PMC9170038.

Tested on: MS2 coat protein
Test: apparent KD of MS2 coat protein; designed switch direction (-1 OFF switch, 1 ON switch): -1; higher = weaker reporter binding
In short: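 SNAP-549-labelled MS2 coat protein was titrated, doubling from 0.7 or 1.5 nM to 3 µM, over designed RNA switches transcribed on Illumina chips by stalled E. coli RNA polymerase. Runs were done without input, with 200 uM small-molecule ligand, or with an oligonucleotide input. Apparent KD is the per-design median over clusters of curve-fitted normalised fluorescence.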

[1] = input ligand: microRNA oligo, concentration not stated
[2] = Eterna round: R95, input ligand: FMN 200 uM
[3] = Eterna round: R95, input ligand: microRNA oligo, concentration not stated
[4] = Eterna round: R95, input ligand: none

Sequence	apparent KD of MS2 coat protein (input ligand: FMN 200 uM) [µM]	apparent KD of MS2 coat protein (input ligand: none) [µM]	apparent KD of MS2 coat protein [1] [µM]	apparent KD of MS2 coat protein [2] [µM]	apparent KD of MS2 coat protein [3] [µM]	apparent KD of MS2 coat protein [4] [µM]
GCACUGCGAGGAUAUACAUGAGGAUCACCCAUGUGUCGGCAGCCACGGUAGCACGAGUGUAGAAGGCGCGUUAG [EX3 #45] (Eterna round: R97, puzzle: Exclusion 3)	0.146	0.0312	–	–	–	–
GUUGUUUAUGUAGGAUAUGCCUGGCGUGCCUUUGCAGAAGGACAUGAGGAUCACCCAUGUAUUGCGGUCUGCGUUCAGAUCGCC [salish99_ExNG1_r4_041] (Eterna round: R96, puzzle: Exclusion NG 1)	0.0331	0.0252	0.0191	–	–	–
UUUAAUUUUUUUUUUUUACAAGCUUUUUGCUCGUCUUAUACAUGAGGAUCACCCAUGUGAAUGGAGGAUAAAUUAUC [JMF 30] (puzzle: Sensor v3, turn-off variant 2)	–	–	–	0.0295	0.0331	0.026
CGAGCUUUUUGCUCGUCUUACAUGAGGAUCACCCAUGUCAUACAGAUAGAUAUACGAAAAGUAUAUCUAUCUGUAUG [Mod of sellena's -59.4, -80.7 kcal, A 10%] (Eterna round: R97, puzzle: Sensor, turn-off variant 1)	0.0233	0.0275	–	–	–	–
AUAGAGUCAGGAUAUACAGGUGGAGGAAAGCAGCAUAAGGAGUAGAAGGGACAUGAGGAUCACCCAUGUAAGUG [JR_Exclu4_Sub058] (puzzle: Exclusion 4)	–	–	–	0.0474	0.0623	0.0602
CCUCCGCAUUAGGAUAUCGUCCCGGAAACGGGACGAGAAGGAAUGACAUGAGGAUCACCCAUGUUAACGUGAUG [Mod of Brourd 18 - Jieux - Exclusion 6] (Eterna round: R97, puzzle: Exclusion 6)	0.304	0.0482	–	–	–	–
AAAUACGCUGAGGAUAUGCGGCGCACAAAAUAAGCAGAAGGCAGCACUUGAGGAUCACCCAAGUGGCCCGAGAA [Enusrees] (Eterna round: R97, puzzle: Exclusion 6)	0.0155	0.008	–	–	–	–
GUCAUCUAUCAUGGGAUAAACAUGAGGAUCACCCAUGUAUACAAGUUUUUUGCUCGUCUUAUAAUAAGAUAGAUGAC [Antenna 4 - Jieux - Sensor, turn-off variant 1] (Eterna round: R97, puzzle: Sensor, turn-off variant 1)	0.0166	0.0161	–	–	–	–
CUGAAUAGAGGAUAUUGUACUGCUGACAUGAGGAUCACCCAUGUAUGUUAACUCGGCCGUCGAGAAGGCUAACAAA [BotMod 13 - Jieux - Exclusion 5] (Eterna round: R97, puzzle: Exclusion 5)	0.0169	0.0412	–	–	–	–
UAGUACAGAGGAUAUACAUGAGGAUCACCCAUGUGUUUCAGCUAGGAGACUAGCGAAAGUAGAAGGCUGUACUG [salish99_ex3_r4_010] (Eterna round: R97, puzzle: Exclusion 3)	0.0262	0.0114	–	–	–	–
AAUUAGUAUGUGAGGAUAUUGAUGUAAUGAUGGUUUAAGAAGGCACAUGAGGAUCACCCAUGUAGGAAAUCACG [JR_BMEx4_Sub006] (Eterna round: R97, puzzle: Brourd's mod of Exclusion 4)	0.0378	0.029	–	–	–	–
GGUGCGUGUGUGAGGAUAUGCUGGUCCUUGGAUCAGCAGAAGGCACAUGAGGAUCACCCAUGUGGUGUCGUACC [salish99_Bmod_Ex4_029] (puzzle: Brourd's mod of Exclusion 4)	–	–	–	–	0.232	–
ACAAGCUUUUAGAUUUUCAACAUGAGGAUCACCCAUGUUCGUCUUAUGCUAGUGCUAGUGCGGUGUACUGGUAUUGG [JL TOV1 3.79 sellena mod] (Eterna round: R97, puzzle: Sensor, turn-off variant 1)	0.0192	0.0195	–	–	–	–
AGAGUGCUGCGAGGAUAUACAUGAGGAUCACCCAUGUUUUCCUGUGAGGCUUUGCCUCACAGGAUGUAGAAGGCGCAGUACUCA [Mat - Exclusion NG 2 - Mod of JL - D38] (Eterna round: R96, puzzle: Exclusion NG 2)	0.00932	0.0131	0.00965	–	–	–
UGAUCAGACCGAGGAUAUAUAUGUAGGACCCACGUGAGUGGGUCCAGAACAUGAGGAUCACCCAUGUAGAAGGCGGUCUGAUCU [JL ENG2 1.88] (Eterna round: R96, puzzle: Exclusion NG 2)	0.019	0.0162	0.0115	–	–	–
AUAAUGUGAGGAUAUCACGGCCCGGUAAAUCCGGUAAACGAUGAGAAGGCACAUGAGGAUCACCCAUGUUCCUG [EX4 A.2] (Eterna round: R97, puzzle: Exclusion 4)	0.0457	0.0162	–	–	–	–
CCCGUGUAAGGAUAUCGUUCACUUGACAAAAGUCAAGUGAACGAGAAGGUACAUGAGGAUCACCCAUGUACGGG [-33.8, -33.4 kcal, A 32%] (Eterna round: R97, puzzle: Exclusion 4)	0.418	0.571	–	–	–	–
UGCAUGCUAGGAUAUACGGGACAUUAGGGUUCGUUGUAUGGACAUGAGGAUCACCCAUGUAGAAGGAGCGUGCU [Mod5 of JL-ex2-2.15 mat747 mod] (puzzle: Exclusion 2)	–	–	–	–	0.026	–
ACCUCUACGCUUUCCAAGGGUAGACCUGGUGUUUGUCACACAUGAGGAUCACCCAUGUGCACUGUGCGAGUCGAACA [solution 38] (Eterna round: R96, puzzle: Sensor v2, turn-off variant 2)	0.0495	0.0506	0.0402	–	–	–
GUGAGAUAGUUAGUGGCCGACAUGAGGAUCACCCAUGUGAGGGAAAUGUUGAGGCGAAAGCUUUUUGCUCGUCUUUA [JR_SV3TOV1_Sub037] (puzzle: Sensor v3, turn-off variant 1)	–	–	–	0.03	0.139	0.0348
UUCUCGUCAGGAUAUUUGUUGUUGUUGGAAACGGCGGCGGCGGAGAAGGGACAUGAGGAUCACCCAUGUCUGGU [-27.7, -24.8 kcal, 20% A] (Eterna round: R97, puzzle: Exclusion 4)	0.0285	0.0212	–	–	–	–
UCACGCACUGUUAGGAUAUGUAUUAUGAAGGUAGUACAGAAGGAACAUGAGGAUCACCCAUGUAAUCCUGGGUG [Eternabot (L1) Solution 61] (Eterna round: R97, puzzle: Brourd's mod of Exclusion 4)	0.726	0.0931	–	–	–	–
ACAUGAGGAUCACCCAUGUUUGGCUGGUCGUCUCCGGCUGUCGAGGAUAUAGUACGGUAUCCGCGCUAGAAGGUGAGGGCCGGC [Raxeorer] (Eterna round: R96, puzzle: Exclusion NG 3)	0.0115	0.0193	0.0146	–	–	–
UCACCGCAAGGAUAUACUUGCGGUGAUGUUCGAAUCUUUCUACUUGAGGAUCACCCAAGUAGAAGGUGCGGUGA [jl-ex2.4.69 ViennaUCT mod] (Eterna round: R97, puzzle: Exclusion 2)	0.0154	0.0122	–	–	–	–
AGAUGGCGAGGAUAUACAUGAGGAUCACCCAUGUGAAGAUAAAUAGUGAGGAAGAAAAGUAGAAGGCGCUGUCA [Mat - Exclusion 3 - Mod of Salish D27] (puzzle: Exclusion 3)	–	–	–	–	0.0586	–
